Data on 19 sequences can be found in a protein production outcome set (Wang et al. 2014).
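Further: failed if final PepcDB status was selected cloned or expressed and not failed if soluble or beyond.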

This data set is described as follows: label from the status in PepcDB records.
Consider “GSSGSSGMDEDVLTTLKILIIGESGVGKSSLLLRFTDDTFDPELAATIGVDFKVKTISVDGNKAKLAIWDTAGQERFRTLTPSYYRGAQGVILVYDVTRRDTFVKLDNWLNELETYCTRNDIVNMLVGNKIDKENREVDRNEGLKFARKHSMLFIEASAKTCDGVQCAFEELVEKIIQTPGLWESENQNSGPSSG”, for which the protein production result is reported as “not failed”. For “GSSGSSGNWIDVRYDLEKIESLIQSIHIDTTLYTDSDFHPSCKVTAMNCFLLELQVILHEYSNMTLNETVRNVLYLANSTLSSNKNVAESGCKECEELEEKTFTEFLQSFIRIVQMFINTS” the value was “not failed”; for “GVDRWPEYYPETGRDIWIDSVMRQEYLWYRDMPSPAAPDYFQKPEAFLKKAVASMDNGFSKIDSLLDEPIPSYGFDYTLYKVLDNDTAYNALISYVVPGSPAEEAGLQRGHWIMMMNGDYITKKVESELLQGSTRQLQIGVYKEVVGEDGEVTGGVVPIGETTMPASRSLVDKPVHRFEIIPWNGKKVGYLMYNEFKAGPTTDSQAYNDDLRRAFRDFQTGGVNEFVLDLRYNTGGSLDCAQLLCTMLAPADKMNQLLALLRYSDKRVEANQDLTFNPELIQSGANLNLSTVYVLTTNATRGAAEMVINCLNPYMKVVLIGTKTAGEYVATKPFVHPTDRFILNLVVCNVYNAEEKSDYATGFKPTYEYNEDSYLSTYLPFGNTNETLLNAALKIMSGITDK”, “not failed”. With “GYAVSVRVGGKEHRHWERYDIDSDFLIPADSFDFVIGRLGPEAAIPDLSGESCEVVIDGQIVMTGIIGSQRHGKSKGSRELSLSGRDLAGFLVDCSAPQLNVKGMTVLDAAKKLAAPWPQIKAVVLKAENNPALGKIDIEPGETVWQALTHIANSVGLHPWLEPDGTLVVGGADYSSPPVATLCWSRTDSRCNIERMDIEWDTDNRFSEVTFLAQSHGRSGDSAKHDLKWVYKDPTMTLHRPKTVVVSDADNLAALQKQAKKQLADWRLEGFTLTITVGGHKTRDGVLWQPGLRVHVIDDEHGIDAVFFLMGRRFMLSRMDGTQTELRLKEDGIWTPDAYPK” the entry was “not failed”; with “HDVIFHIRAKGKNQKLLLSAHPSYSRVHITAQAYENPSEPPMFCMLLRKHIEGGFIEKIEQAGLDRIMIFHIKSRNEIGDETVRKLYVEIMGRHSNIILTDAAENVIIDGLKHLSPSMNSYRTVLPGQDYKLPPAQDKISPLEASEDDILRHLSFQEGRLDKQIVDHFSGVSPLFAKEAVHRAGLANKVTLPKALLALFAEVKEHRFIPNITTVNGKEYFYLLELTHLKGEARRFDSLSELLDRFYFGKAERDRVKQQAQDLERFVVNERKKNANKIKKLEKTLEYSENAKEFQLYGELLTANLYMLKKGD”, “failed”; with “HGEQSYSIGILTDITMTKMYEVLQYKVLEALILERPLDEVMTMLCHEVERIAPEVTASILQSIGQNHLSHLAGPSLPPAYTAVISSVPISPIAGSCGTAAFRKEAVEVQDIATDPLWDNYRHLILPHGLLACWSTPIISSQGQLLGTFAFYYRQIRSPSDFHRQLVKLIANLCSLAMERELSRKQIQHLAFYDS”, “failed”. For “HKEDKEDFAELSGIAVPAEITAEDGTMFKEALLFTHRGLSGPSVLQISSFWKAGQKVSINLVPNEDIALLLERSLEKHPNQSLKNTLAKVLPKRLVEVLIERKELMDKPLKQFNPKELASVVERLENWSIAPNGTEGYRTAEVTLGGVDTDHLSSKTMECKNIKGLYFIGEVMDVTGWLGGYNFQWCWSSGFVAGQWV” the value was “failed”. Consider “HLGEVQSEVVRFAVRFPSDKEQSSLLIDADAPVYDFVRLRLLNGEPVSLDLTVMPVGLVPGLTKSHLEGSVFRYVQETLGLKLMGSYRVVRAMKPGELDKQHLHCEPTDPVLEVEQVIYLEDGTPLEYAHCHYRYDHGG”, for which the protein production entry is given as “not failed”. With “HPHIQLLKSNRELLVTHIRNTQCLVDNLLKNDYFSAEDAEIVCACPTQPDKVRKILDLVQSKGEEVSEFFLYLLQQLADAYVDLRPWLLEIGFS” the entry was “not failed”; with “HRMDAVEVTLFEKETRVAAHQTGHNSGVVHAGLYYLPGSLKARLCRRGVTLLQQYAENKGVAYEECGKVVVAHDSSEVARMDAIFDRAVANGVPGIRKVAGEEIPEIEPHARGVAAVHSPHTAIIDYVAVAEALAADITAAGGRVLLGREVVGLDSRTAETVVTTGQGSEVFDLVVTCAGLQSDRVALMSGEPRSPRVVPFFGDYFLLEPERSSLVKGLIYPVPDPRYPFLGVHLTKRIDGRIMLGPNAFLSF”, “failed”. With “HVAGHHLAPTIIAADQHWLLVNWLEGDVVTHAQFIELSNNGQLAQLLTRLHHLPASGYRLDLRAQLIRYAGQIDTKRLSPSWLRLHQHFQRRSPPQPVKLAPLHMDIHPGNLLATPSGLKLIDWEYAADGDIALDIAALFRGNGWSAPQQQAFLQHYCLNEQGYPDIDRLSRQIQRWVPWVDYLMLMWFEVRWQQTGD” the entry was “failed”; with “HYIFPHARIKITRDSKDHTVSGNGLGIRIVGGKEIPGHSGEIGAYIAKILPGGSAEQTGKLMEGMQVLEWNGIPLTSKTYEEVQSIISQQSGEAEICVRLDLNM”, “not failed”; with “HYTPKSLTEAIVAETLTPLTYFGPVEGSACKEWTLKTPAELLDLKICDPAMGSGAFLVQACRWLADRLVEAWAQAEIKGKIINVDGNVLDDLSSNELMPHDIDARINIARYLIAERCLYGIDLNPLAVELAKLSIWLVTLAKGRPFGFLDHSLRCGDSLLGIHQVNQLIELSVLTNSDDQDTLFSKDIRKAIYDASKLRQRLREMPIGDIHDIEEMERLNTEAHKRLYKAKKIADALVGEIFATGANFSAREARLKMLSLKLKESVEEDENIFMEISYQGTVKLQQELPSGRSKRIPIHWPLEFPEVFIRTCSGFDAIIGNPPFLGGRKITGVFGNLYREYLVANIAKGERGSSADLVAYFFLRSFYLLRESGCLGLIAVNSIAEGDSRQIGLERLLQSGAQIFSATPNEPWPGKAAVVTSRIHLIKGAFFGEKLLNGKKVAIISAFLSDQNEWSPKILKENLGQS”, “failed”. With “IEIDSGSGFCFGVVNAIRHAEKQLEKSSDKLYCLGDIVHNTLEVERLGKKGLETIDYDAFSRLRGAKVLLRAHGEPPEIYRMAGENGVTIIDATCPVVLRLQNKIKSRYEATRSLGAQVVIYGKRGHAEVNGLVGQTEGTAIVIESEEELDKIDYTRPVILFSQTTKSLEGFGQIIDSISTRMQPGVTFEHHDTICRQVANRIPHIGAFATAHELVFFVAGEKSSNGKVLFGHCLAANPRSIFISSPEVIVPDMLVPLPASIGICGATSTPRWQMEEVASHIKAL” the entry was “failed”. For the sequence “IESIPMPILYKNMEGSYLGCNSKFLELSGKSREEVIGFRVGDLLDKKSAMEIEECERHLKEKGECPSHDIRFVDHRGEECFIRVYKTLLTNNFDEPVGILGFFVDMS”, the protein production result was “failed”. With “IIAGETSIPSQGENMPAYHARPKNADGPLPIVIVVQEIFGVHEHIRDLCRRLAQEGYLAIAPELYFRQGDPNEYHDIPTLFKELVSKVPDAQVLADLDHVASWAARHGGDAHRLLITGFCWGGRITWLYAAHNPQLKAAVAWYGKLVGEKSLNSPKHPVDIAVDLNAPVLGLYGAKDASIPQDTVETMRQALRAANATAEIVVYPEADHAFNADYRASYHEESAKDGWQRMLAWFAQY” the entry was “not failed”.

As for “IIWDWNVERDRIIVHPDMKSLFGTETHKLNGPMQNWISALHHDDRERFQAVLDIILKNKKGRIDQIFRLSSGGGYYHWFSLRARPAMQKDGKITRVIGTIVNITNHKKA”, the protein production entry is given as “failed”. For “ILVKNLPQDSNCQEVHDLLKDYDLKYCYVDRNKRTAFVTLLNGEQAQNAIQMFHQYSFRGKDLIVQLQPTDALLC” the value was “not failed”. For “IRVAAFNVLNYDNGAEKGFPTDRGATTATEFSRQHQKIVTALKAINADVYGLMEIANNGYDEKSAIAYLTKSLGPDWKYITPPNMNRLGSDVIAVGILYNAKRVKPVNAAVVFDDQSQKNRVTMAQTFQPIHGGKFFTVIPNHLKSKGSCPEDTASTDADQLDGQGCWNPTRVKAVEQLIQWAAKNPTRVQQPNILFLGDMNSYAKEDPILAFEKANYKVLLNDEKIGQGKQAYSYVFGVSSNALGYGGAGNIDHAIADSNLYRFVKRAFVWHINADEPTALDYNEEYKTDEQKTLFYADDAYRSSDHDPVIVDLDLKESAQQGGVLNFIQQLLDWIAQLFTRT” the value was “failed”.
